B1: Protein piccolo, residues 1058 to 1114; numbered along this chain, Q9Y6V0 (parent)
chain: TCPLCKTELNIGSKDPPNFNTCTECKNQVCNLCGFNPTPHLTEIQEWLCLNCQTQRA
B2: Chromodomain-helicase-DNA-binding protein 4, residues 444 to 496; numbered along this chain, Q14839 (parent)
chain: EDDHHMEFCRVCKDGGELLCCDTCPSSYHIHCLNPPLPEIPNGEWLCPRCTCP

Variants of: B1
Assay: abundance fitness (aPCA) (normalised: wild type 0, dead -1); higher = more abundant; growth selection in yeast, the domain comes from the species named
Conditions: Homo sapiens

Abundance fitness: each site, then its substitutions
N10: R -0.274, F -0.103, S -0.08, D -0.245, L -0.204, K 0.2, A 0.041, T 0.062, Q -0.005, H -0.608, E -0.022, M 0.042, W -0.676, V -0.211
T1: G -0.205, W -0.516, E -0.142, K -0.424, V -0.202, L -0.078, A -0.534, M -0.031, I -0.024, R -0.21, S -0.129, P -0.239
I11: C -0.133, A -0.153, L -0.22, E 0.172, M 0.039, H 0.054, K -0.104, F -0.063
L4: G 0.067, W -0.576, I -0.048, M 0.075, F -0.376, T -0.051, V -0.308, P -0.693, K -0.569, E -0.288, N 0.036, A 0.087, H 0.054, C -0.043, S 0.006, R -0.054, D 0.17, Q 0.028, Y -0.088
C2: F -1.11, G -0.877, M -0.983, V -1.11, R -0.991, T -0.705, N -0.156, H -0.834, D -0.536, W -0.904, P -1.1, K -0.831, A -1.3, Y -1.15, I -1.23, E -0.557, S -0.687
T7: K 0.043, L -0.15, W -0.797, S -0.09, Y -0.34, M -0.301, N -0.007, G -0.011, R -0.056, C -0.56, H -0.168, Q 0.019, I -0.31, E 0.094, A -0.063, F -0.342
K6: N 0.071, Q -0.02, I -0.087, W -0.795, A -0.097, Y -0.18, H -0.142, E -0.069, C -0.329, D -0.298, T -0.107, G -0.507, P 0.104, S 0.059, R -0.283, V -0.215
P3: F -0.216, E -0.32, K -0.248, R -0.175, L -0.282, I -0.073, A -0.245, Y -0.142, Q -0.506, C 0.148, T -0.016, S -0.078, G -0.137, W -0.984, V -0.294, D 0.095
L9: C -0.201, R -0.156, Y -0.181, I -0.098, K 0.026, S -0.042, Q -0.128, W -0.419, D -0.138, A 0.032, M 0.145, H -0.231, T -0.081, P -0.197, N -0.174, F 0.007, G -0.047, V -0.056, E -0.11
C5: N -0.693, H -0.142, Y -0.947, A -0.844, P -1.01, W -0.96, T -0.872, L -1.17, S -0.68, E -0.812, K -0.63, I -1.06, D -0.606, F -1.11, Q -0.689, G -0.685, R -0.906, M -0.927
E8: G -0.052, I -0.153, C -0.56, N -0.488, R -0.206, L -0.252, Q -0.178, M -0.011, W -0.517, H -0.479, F -0.431, A -0.244, Y -0.679, P -0.09, D -0.14

Variants of: B2
Assay: as above
Conditions: Homo sapiens

Abundance fitness of substitutions, site by site:
T51: S 0.013, Y -0.171, M -0.097, P 0.031, W -0.12, H -0.169, R -0.073, V -0.048, F 0.048, K -0.051, C -0.151, N 0.12, L -0.003, D 0.152, G -0.136, Q -0.03, E 0.074
C52: S -0.002, H 0.096, W -0.033, N -0.161, L 0, I -0.189, V 0.032, T 0.288, M 0.433, D -0.218, Q 0.145, F -0.358, E 0.489, G 0.294, Y -0.019, P -0.667
G43: M -0.195, N -0.068, H -0.13, R -0.044, Q -0.032, V -0.075, P -0.287, I -0.144, S -0.061, L -0.201, K 0.03
E44: N 0.095, A -0.07, D -0.156, G 0.03, T -0.122, I -0.119, L -0.024, K 0.064, Q -0.104, F -0.152, R -0.001, S -0.018, M -0.084, H -0.057, W -0.413, V -0.143, C -0.21
P53: H 0.616, S -0.455
C50: W -1.11, S -0.622, P -0.755, Y -1.02, F -0.895, T -0.78, I -1.08, E -0.708, M -0.986, Q -0.769, K -0.58, V -0.791, L -0.845, D -0.633, N -0.46, H -0.286, G -0.727
P48: K -0.397, C -0.815, W -0.349, R -0.352, N -0.54, Y -0.567, T -0.27, M -0.363, H -0.278, L -0.622, S -0.21, G -0.284, A -0.155, F -0.717, D -0.102, V -0.504, I -0.941, E -0.042
W45: L -0.591, H -0.489, K -0.549, R -0.446, T -0.43, I -0.533, Y -0.357, E -0.517, P -0.503, Q -0.509, M -0.398, N -0.428, V -0.431, D -0.473, A -0.517, F -0.085, S -0.443, C -0.616, G -0.487
C47: V -0.605, W -0.766, E -0.606, T -0.732, R -0.664, P -0.552, Q -0.627, F -0.803, A -0.804, S -0.598, I -0.697, Y -0.78, L -0.639, H -0.36, K -0.503, G -0.652, N -0.559
R49: P -0.187, D 0.145, G 0.069, W -0.132, F -0.089, Q 0.034, E -0.108, N 0.04, T 0.043, L -0.101, M -0.101, I 0.016, S -0.095, A 0.019, Y -0.201, H 0.047, V 0.006
L46: A -0.033, Q -0.019, I -0.012, D -0.252, T -0.02, W -0.266, K 0.079, R 0.008, N 0.211, P -0.426, E -0.092, Y -0.061, V 0.106

Reference: the Human Domainome abundance scans (Beltran et al. 2025)
